Experimental data as given in US20190233508A1 (Eli Lilly, published 2019).

Molecular target: T1, Recombinant human IL-21 protein (25-155) (human, UniProt Q9HBE4 32-162)
T1 construct: also called recombinant IL-21; IL-21 recombinant protein
Assay: Quanterix Simoa sandwich pairing against recombinant IL-21 reference curve (100 ng/mL-1.0 fg/mL)
Method: The antibodies of the present invention, AbM2, Ab2-1, and Ab3-1, are conjugated to beads (Quanterix Cat #101360) at 0.5 mg/mL and are biotinylated according to the manufacturer's protocol at a ratio of 40 to 1 biotin to antibody. Nine combinations of the three antibody pairs are generated and analyzed against a recombinant IL-21 reference curve (100 ng/mL-1.0 fg/mL). The beads are diluted in bead diluent (Quanterix, Cat #100458) and the detection antibodies are diluted in sample/detection buffer (Quanterix, Cat #101359). Two pairs of antibodies are moved into further optimization due to the ability to discriminate IL-21 concentrations in the fg/mL range. The first pair is Ab2-1 and AbM2 which perform well in either orientation. The second pair is Ab3-21 as capture and Ab2-1 as detection.

T1 sequence (Q9HBE4 other isoform, or with tags, fused parts or gaps limits assumed): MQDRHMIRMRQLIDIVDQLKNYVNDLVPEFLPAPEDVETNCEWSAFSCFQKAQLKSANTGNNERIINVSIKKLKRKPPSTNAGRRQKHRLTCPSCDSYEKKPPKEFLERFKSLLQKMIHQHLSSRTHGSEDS

| binding result | Binder |
| --- | --- |
| binds | anti-human IL-21 antibody AbM2 (antibody, V domains shown, In the Simoa assays it is biotinylated (40:1 biotin to antibody)) VH: QVQLVQSGAEVKKPGASVKVSCKASGYTFTDYWMHWVRQAPGQGLEWMGLIDTSDSYTIYNQKFKGRVTMTRDTSTSTVYMELSSLRSEDTAVYYCARYGPLAMDYWGQGTLVTVSS VL: DIQMTQSPSSLSASVGDRVTITCRASQDISNYLNWYQQKPGKAPKLLIYYTSRLHSGVPSRFSGSGSGTDFTLTISSLQPEDFATYYCQQFHTLRTFGGGTKVEIKR |
| binds | anti-human IL-21 antibody Ab3-1 (antibody, mouse IgG1, kappa, V domains shown, also called Ab34; Ab3-21) VH: QVQLKQSAAELARPGASVKMSCKASGYFFTLYMMHWAKQRPGQNLEWIGYINPSSGYTEYNQKFKDKTTLTADKSSSTAYMQLSSLTSEDSAIYYCLTDFDYWGQGTSLTVSS VL: not shown |
